Key:
[1] = molecular target: SARS-CoV-2 S1-His protein (SARS-CoV-2); assay: ELISA
WT RBD-His = WT RBD-His (SARS-CoV-2, UniProt P0DTC2); assay: ELISA

B1: 2B11 monoclonal antibody (full-length human IgG1) (antibody, V domains shown)
VH: EVQLVESGGGLVQPGGSLRLSCAASEITVSSNYMNWVRQAPGKGLEWVSVIYSGGTTYYADSVKGRFTISRDNSENTLYLQMNSLRAEDTAVYYCARDLMEVGGMDVWGQGTTVTVSS
VL: LPVLTQPPSASGTPGQRVTISCSGSSSNVENDNVNWFQQQVPGSTPKLVIYNDRLRPSGVPDRFSGSKSGTSAYLAISGLQSEDEADYYCVAWDASLQSYVFGTGTKVTVL
[1]
  IC50: 0.383 µg/mL
WT RBD-His
  IC50: 0.589 µg/mL

— article PMC8315086 (2021)
